Molecular target: IL2Rαβγ, the high affinity IL-2 receptor, on human Treg cells (human) (UniProt P01589)
Assay: cell-based or functional assay

IL2Rαβγ, the high affinity IL-2 receptor, on human Treg cells (human), sequence (P01589 22-272, chain 1 of 3): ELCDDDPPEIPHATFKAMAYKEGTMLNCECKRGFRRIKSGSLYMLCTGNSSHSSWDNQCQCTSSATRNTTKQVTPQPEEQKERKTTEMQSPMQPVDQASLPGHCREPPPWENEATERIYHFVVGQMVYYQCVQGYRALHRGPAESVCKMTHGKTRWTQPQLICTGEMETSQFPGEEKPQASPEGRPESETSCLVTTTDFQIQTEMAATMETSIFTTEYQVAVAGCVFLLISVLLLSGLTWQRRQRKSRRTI
IL2Rαβγ, the high affinity IL-2 receptor, on human Treg cells (human), sequence (P14784 27-551, chain 2 of 3, further chain): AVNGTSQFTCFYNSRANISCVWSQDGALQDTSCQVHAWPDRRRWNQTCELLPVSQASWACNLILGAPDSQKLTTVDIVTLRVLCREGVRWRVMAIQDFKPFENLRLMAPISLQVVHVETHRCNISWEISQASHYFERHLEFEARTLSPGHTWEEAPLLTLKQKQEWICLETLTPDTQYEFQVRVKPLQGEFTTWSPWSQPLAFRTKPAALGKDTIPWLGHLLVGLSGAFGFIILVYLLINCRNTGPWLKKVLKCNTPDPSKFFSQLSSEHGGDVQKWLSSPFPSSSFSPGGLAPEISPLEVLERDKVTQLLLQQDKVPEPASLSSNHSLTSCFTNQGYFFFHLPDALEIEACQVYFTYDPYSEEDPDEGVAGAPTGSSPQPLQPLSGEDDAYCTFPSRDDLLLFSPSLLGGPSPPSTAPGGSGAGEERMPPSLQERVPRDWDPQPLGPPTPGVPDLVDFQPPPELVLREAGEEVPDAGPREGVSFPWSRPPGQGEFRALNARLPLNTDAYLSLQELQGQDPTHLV
IL2Rαβγ, the high affinity IL-2 receptor, on human Treg cells (human), sequence (P31785 23-369, chain 3 of 3, further chain): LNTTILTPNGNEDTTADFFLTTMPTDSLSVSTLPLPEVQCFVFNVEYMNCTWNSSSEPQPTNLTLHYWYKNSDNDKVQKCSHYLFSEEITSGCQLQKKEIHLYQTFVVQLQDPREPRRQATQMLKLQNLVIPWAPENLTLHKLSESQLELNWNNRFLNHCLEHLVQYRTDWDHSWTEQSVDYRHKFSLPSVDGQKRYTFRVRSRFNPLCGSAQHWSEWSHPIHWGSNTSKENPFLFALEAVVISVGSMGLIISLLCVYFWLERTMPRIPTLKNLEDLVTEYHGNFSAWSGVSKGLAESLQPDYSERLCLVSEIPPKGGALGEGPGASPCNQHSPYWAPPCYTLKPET

Percentage of pSTAT5+ cells, Treg cells in human PBMC, 10^-8 M protein: 99.9%
Substance: N88R/IL2 (from UniProt P60568 21-153) (ligand)

— patent US20190375812A1
